B1: Recombinant human kallistatin (rKAL), wild type (natural protein, UniProt P29622 45-427, looked up)
chain: GSPSLKIAPANADFAFRFYYLIASETPGKNIFFSPLSISAAYAMLSLGACSHSRSQILEGLGFNLTELSESDVHRGFQHLLHTLNLPGHGLETRVGSALFLSHNLKFLAKFLNDTMAVYEAKLFHTNFYDTVGTIQLINDHVKKETRGKIVDLVSELKKDVLMVLVNYIYFKALWEKPFISSRTTPKDFYVDENTTVRVPMMLQDQEHHWYLHDRYLPCSVLRMDYKGDATVFFILPNQGKMREIEEVLTPEMLMRWNNLLRKRNFYKKLELHLPKFSISGSYVLDQILPRLGFTDLFSKWADLSGITKQQKLEASKSFHKATLDVDEAGTEAAAATSFAIKFFSAQTNRHILRFNRPFLVVIFSTSTQSVLFLGKVVDPTKP
notes: kallistatin (SERPINA4), human, residues 45-427; Vector pE-SUMO3; purified on a HisTrap column, so the SUMO3 fusion probably carries a His tag that leaves with SUMO3; During storage or crystallisation part of the protein is cleaved between F387 and F388 (P2-P1) by an unknown protease; the crystal structures hold this cleaved form; also called rKAL-WT; SERPINA4; source: E. coli BL21 (DE3), purified …
B2: Recombinant human tissue kallikrein 1 (KLK1), wild type (enzyme)
chain: not shown
notes: tissue kallikrein 1 (KLK1), human, residues 25-262; Vector pE-SUMO3; also called kallikrein-related peptidase 1

What was measured:
Conditions in all cases: both partners purified
[1] = target: B2; assay: stoichiometry of inhibition by titration of residual protease activity; 1 µM protease with increasing kallistatin variant in PBS, 0.1% PEG 8000, 2 h, 37 °C; residual activity on 0.2 mM H-D-Val-Leu-Arg-AMC; intercept on the abscissa
[2] = target: B2; assay: kinetics of protease inhibition (discontinuous assay); pseudo-first-order; 10 nM protease with 100-500 nM kallistatin variant, PBS, 0.1% PEG 8000, 22 ± 1 °C; apparent second-order rate constant kapp from kobs; k2 = kapp × SI
[3] = target: B1; assay: SDS-stable covalent serpin-protease complex on reducing SDS-PAGE; 2 µg rKAL mixed with 0.5-1 µg KLK1 (2-3 min), 5 µg KLK1-99Lm (20 min) or 0.5 µg KLK1-70Lm (2 min) at room temperature, no heparin; Coomassie stain

Row | Binder | SI (stoichiometry of inhibition) [1] | k2 (kapp × SI, second-order rate constant) [2] [M⁻¹ s⁻¹] | kapp (apparent second-order rate constant) [2] [M⁻¹ s⁻¹] | binding result [3]
1 | B1 | 1.4 | 3400 | 2400 | –
2 | rKAL-R300D (natural protein, human, UniProt P29622 45-427, looked up, kallistatin (SERPINA4), human, residues 45-427; source: E. coli BL21 (DE3), purified (HisTrap FF crude, SENP2 digestion, HiTrap SP)) GSPSLKIAPANADFAFRFYYLIASETPGKNIFFSPLSISAAYAMLSLGACSHSRSQILEGLGFNLTELSESDVHRGFQHLLHTLNLPGHGLETRVGSALFLSHNLKFLAKFLNDTMAVYEAKLFHTNFYDTVGTIQLINDHVKKETRGKIVDLVSELKKDVLMVLVNYIYFKALWEKPFISSRTTPKDFYVDENTTVRVPMMLQDQEHHWYLHDRYLPCSVLRMDYKGDATVFFILPNQGKMREIEEVLTPEMLMDWNNLLRKRNFYKKLELHLPKFSISGSYVLDQILPRLGFTDLFSKWADLSGITKQQKLEASKSFHKATLDVDEAGTEAAAATSFAIKFFSAQTNRHILRFNRPFLVVIFSTSTQSVLFLGKVVDPTKP | 1.8 | 2900 | 1600 | –
3 | rKAL-R259D (natural protein, human, UniProt P29622 45-427, looked up, kallistatin (SERPINA4), human, residues 45-427; source: E. coli BL21 (DE3), purified (HisTrap FF crude, SENP2 digestion, HiTrap SP)) GSPSLKIAPANADFAFRFYYLIASETPGKNIFFSPLSISAAYAMLSLGACSHSRSQILEGLGFNLTELSESDVHRGFQHLLHTLNLPGHGLETRVGSALFLSHNLKFLAKFLNDTMAVYEAKLFHTNFYDTVGTIQLINDHVKKETRGKIVDLVSELKKDVLMVLVNYIYFKALWEKPFISSRTTPKDFYVDENTTVRVPMMLQDQEHHWYLHDDYLPCSVLRMDYKGDATVFFILPNQGKMREIEEVLTPEMLMRWNNLLRKRNFYKKLELHLPKFSISGSYVLDQILPRLGFTDLFSKWADLSGITKQQKLEASKSFHKATLDVDEAGTEAAAATSFAIKFFSAQTNRHILRFNRPFLVVIFSTSTQSVLFLGKVVDPTKP | 1.6 | 3500 | 2200 | –
4 | rKAL-307/308D (natural protein, human, UniProt P29622 45-427, looked up, kallistatin (SERPINA4), human, residues 45-427; double mutant of K307 and R308 to Asp; also called rKAL-K307/308D; source: E. coli BL21 (DE3), purified (HisTrap FF crude, SENP2 digestion, HiTrap SP)) GSPSLKIAPANADFAFRFYYLIASETPGKNIFFSPLSISAAYAMLSLGACSHSRSQILEGLGFNLTELSESDVHRGFQHLLHTLNLPGHGLETRVGSALFLSHNLKFLAKFLNDTMAVYEAKLFHTNFYDTVGTIQLINDHVKKETRGKIVDLVSELKKDVLMVLVNYIYFKALWEKPFISSRTTPKDFYVDENTTVRVPMMLQDQEHHWYLHDRYLPCSVLRMDYKGDATVFFILPNQGKMREIEEVLTPEMLMRWNNLLRDDNFYKKLELHLPKFSISGSYVLDQILPRLGFTDLFSKWADLSGITKQQKLEASKSFHKATLDVDEAGTEAAAATSFAIKFFSAQTNRHILRFNRPFLVVIFSTSTQSVLFLGKVVDPTKP | 1.5 | 2000 | 1300 | –
5 | rKAL-R394D (natural protein, human, UniProt P29622 45-427, looked up, kallistatin (SERPINA4), human, residues 45-427; source: E. coli BL21 (DE3), purified (HisTrap FF crude, SENP2 digestion, HiTrap SP)) GSPSLKIAPANADFAFRFYYLIASETPGKNIFFSPLSISAAYAMLSLGACSHSRSQILEGLGFNLTELSESDVHRGFQHLLHTLNLPGHGLETRVGSALFLSHNLKFLAKFLNDTMAVYEAKLFHTNFYDTVGTIQLINDHVKKETRGKIVDLVSELKKDVLMVLVNYIYFKALWEKPFISSRTTPKDFYVDENTTVRVPMMLQDQEHHWYLHDRYLPCSVLRMDYKGDATVFFILPNQGKMREIEEVLTPEMLMRWNNLLRKRNFYKKLELHLPKFSISGSYVLDQILPRLGFTDLFSKWADLSGITKQQKLEASKSFHKATLDVDEAGTEAAAATSFAIKFFSAQTNDHILRFNRPFLVVIFSTSTQSVLFLGKVVDPTKP | 1.8 | 1800 | 1000 | –
6 | B2 | – | – | – | binds
7 | rKAL-312/313D (natural protein, human, UniProt P29622 45-427, looked up, kallistatin (SERPINA4), human, residues 45-427; double mutant of K312 and K313 to Asp; also called rKAL-K312/313D; source: E. coli BL21 (DE3), purified (HisTrap FF crude, SENP2 digestion, HiTrap SP)) GSPSLKIAPANADFAFRFYYLIASETPGKNIFFSPLSISAAYAMLSLGACSHSRSQILEGLGFNLTELSESDVHRGFQHLLHTLNLPGHGLETRVGSALFLSHNLKFLAKFLNDTMAVYEAKLFHTNFYDTVGTIQLINDHVKKETRGKIVDLVSELKKDVLMVLVNYIYFKALWEKPFISSRTTPKDFYVDENTTVRVPMMLQDQEHHWYLHDRYLPCSVLRMDYKGDATVFFILPNQGKMREIEEVLTPEMLMRWNNLLRKRNFYDDLELHLPKFSISGSYVLDQILPRLGFTDLFSKWADLSGITKQQKLEASKSFHKATLDVDEAGTEAAAATSFAIKFFSAQTNRHILRFNRPFLVVIFSTSTQSVLFLGKVVDPTKP | 1.5 | 1500 | 1000 | –
